{"source": "the supplement of paper PMC10567573", "parents": {"B1": {"name": "CDC14A (parent)", "chain": "LWVQGDIFRSKLKNRPSSEGSINK"}}}
{"variants_of": "B1", "test": "protein stability index of a GFP-peptide fusion (GPS, HEK-293T) (PSI 1-6); higher = more stable", "settings": "c terminus: a fixed tail appended"}
{"variant": "LWVQGDIFRSKLKNRYSSEGSINK", "note": "[P16Y]", "protein stability index": 1.91}
{"variant": "LWVQGDIFRSKLKNRRSSEGSINK", "note": "[P16R]", "protein stability index": 2.7}
{"variant": "LWVQGDIFRSKLKNRLSSEGSINK", "note": "[P16L]", "protein stability index": 1.57}
{"variant": "LWVQGDIFRSKLKNRISSEGSINK", "note": "[P16I]", "protein stability index": 2.36}
{"variant": "LWVQGDIFRSKLKNRHSSEGSINK", "note": "[P16H]", "protein stability index": 2.52}
{"variant": "LWVQGDIFRSKLKNRCSSEGSINK", "note": "[P16C]", "protein stability index": 1.92}
{"variant": "LWVQGDIFRSKLKNRASSEGSINK", "note": "[P16A]", "protein stability index": 2.8}
{"variant": "LWVQGDIFRSKLKNRQSSEGSINK", "note": "[P16Q]", "protein stability index": 2.5}
{"variant": "LWVQGDIFRSKLKNRNSSEGSINK", "note": "[P16N]", "protein stability index": 2.51}
{"variant": "LWVQGDIFRSKLKNRGSSEGSINK", "note": "[P16G]", "protein stability index": 2.02}
{"variant": "LWVQGDIFRSKLKNRKSSEGSINK", "note": "[P16K]", "protein stability index": 2.68}
{"variant": "LWVQGDIFRSKLKNRVSSEGSINK", "note": "[P16V]", "protein stability index": 1.64}
{"variant": "LWVQGDIFRSKLKNRFSSEGSINK", "note": "[P16F]", "protein stability index": 2.49}
{"variant": "LWVQGDIFRSKLKNRSSSEGSINK", "note": "[P16S]", "protein stability index": 2.52}
{"variant": "LWVQGDIFRSKLKNRDSSEGSINK", "note": "[P16D]", "protein stability index": 2.89}
{"variant": "LWVQGDIFRSKLKNRWSSEGSINK", "note": "[P16W]", "protein stability index": 1.74}
{"variant": "LWVQGDIFRSKLKNRMSSEGSINK", "note": "[P16M]", "protein stability index": 2.17}
{"variant": "LWVQGDIFRSKLKNRESSEGSINK", "note": "[P16E]", "protein stability index": 3.38}
{"variant": "LWVQGDIFRSKLKNRTSSEGSINK", "note": "[P16T]", "protein stability index": 2.6}
{"variant": "LWVQGDIFRSKLKQRPSSEGSINK", "note": "[N14Q]", "protein stability index": 2.36}
{"variant": "LWVQGDIFRSKLKMRPSSEGSINK", "note": "[N14M]", "protein stability index": 2}
{"variant": "LWVQGDIFRSKLKLRPSSEGSINK", "note": "[N14L]", "protein stability index": 2.47}
{"variant": "LWVQGDIFRSKLKERPSSEGSINK", "note": "[N14E]", "protein stability index": 2.7}
{"variant": "LWVQGDIFRSKLKCRPSSEGSINK", "note": "[N14C]", "protein stability index": 2.13}
{"variant": "LWVQGDIFRSKLKARPSSEGSINK", "note": "[N14A]", "protein stability index": 2.6}
{"variant": "LWVQGDIFRSKLKDRPSSEGSINK", "note": "[N14D]", "protein stability index": 2.67}
{"variant": "LWVQGDIFRSKLKPRPSSEGSINK", "note": "[N14P]", "protein stability index": 2.45}
{"variant": "LWVQGDIFRSKLKHRPSSEGSINK", "note": "[N14H]", "protein stability index": 2.26}
{"variant": "LWVQGDIFRSKLKYRPSSEGSINK", "note": "[N14Y]", "protein stability index": 2.53}
{"variant": "LWVQGDIFRSKLKGRPSSEGSINK", "note": "[N14G]", "protein stability index": 2.24}
{"variant": "LWVQGDIFRSKLKTRPSSEGSINK", "note": "[N14T]", "protein stability index": 1.88}
{"variant": "LWVQGDIFRSKLKSRPSSEGSINK", "note": "[N14S]", "protein stability index": 1.99}
{"variant": "LWVQGDIFRSKLKFRPSSEGSINK", "note": "[N14F]", "protein stability index": 2.48}
{"variant": "LWVQGDIFRSKLKRRPSSEGSINK", "note": "[N14R]", "protein stability index": 1.91}
{"variant": "LWVQGDIFRSKLKKRPSSEGSINK", "note": "[N14K]", "protein stability index": 2.55}
{"variant": "LWVQGDIFRSKLKWRPSSEGSINK", "note": "[N14W]", "protein stability index": 2.15}
{"variant": "LWVQGDIFRSKLKIRPSSEGSINK", "note": "[N14I]", "protein stability index": 2.43}
{"variant": "LWVQGDIFRSKLKNRPSKEGSINK", "note": "[S18K]", "protein stability index": 2.59}
{"variant": "LWVQGDIFRSKLKNRPSPEGSINK", "note": "[S18P]", "protein stability index": 1.91}
{"variant": "LWVQGDIFRSKLKNRPSMEGSINK", "note": "[S18M]", "protein stability index": 1.8}
{"variant": "LWVQGDIFRSKLKNRPSIEGSINK", "note": "[S18I]", "protein stability index": 1.84}
{"variant": "LWVQGDIFRSKLKNRPSDEGSINK", "note": "[S18D]", "protein stability index": 3.11}
{"variant": "LWVQGDIFRSKLKNRPSWEGSINK", "note": "[S18W]", "protein stability index": 1.46}
{"variant": "LWVQGDIFRSKLKNRPSLEGSINK", "note": "[S18L]", "protein stability index": 3.55}
{"variant": "LWVQGDIFRSKLKNRPSEEGSINK", "note": "[S18E]", "protein stability index": 3.11}
{"variant": "LWVQGDIFRSKLKNRPSTEGSINK", "note": "[S18T]", "protein stability index": 2.45}
{"variant": "LWVQGDIFRSKLKNRPSCEGSINK", "note": "[S18C]", "protein stability index": 3.17}
{"variant": "LWVQGDIFRSKLKNRPSHEGSINK", "note": "[S18H]", "protein stability index": 3.27}
{"variant": "LWVQGDIFRSKLKNRPSYEGSINK", "note": "[S18Y]", "protein stability index": 2.01}
{"variant": "LWVQGDIFRSKLKNRPSGEGSINK", "note": "[S18G]", "protein stability index": 4.75}
{"variant": "LWVQGDIFRSKLKNRPSAEGSINK", "note": "[S18A]", "protein stability index": 2.58}
{"variant": "LWVQGDIFRSKLKNRPSQEGSINK", "note": "[S18Q]", "protein stability index": 2.39}
{"variant": "LWVQGDIFRSKLKNRPSFEGSINK", "note": "[S18F]", "protein stability index": 2.37}
{"variant": "LWVQGDIFRSKLKNRPSNEGSINK", "note": "[S18N]", "protein stability index": 2.54}
{"variant": "LWVQGDIFRSKLKNRPSVEGSINK", "note": "[S18V]", "protein stability index": 2.25}
{"variant": "LWVQGDIFRSKLKNRPSREGSINK", "note": "[S18R]", "protein stability index": 2.42}
{"variant": "LWVQGDIFRSKLKNEPSSEGSINK", "note": "[R15E]", "protein stability index": 3.02}
{"variant": "LWVQGDIFRSKLKNYPSSEGSINK", "note": "[R15Y]", "protein stability index": 3.17}
{"variant": "LWVQGDIFRSKLKNVPSSEGSINK", "note": "[R15V]", "protein stability index": 2.78}
{"variant": "LWVQGDIFRSKLKNIPSSEGSINK", "note": "[R15I]", "protein stability index": 2.52}
{"variant": "LWVQGDIFRSKLKNGPSSEGSINK", "note": "[R15G]", "protein stability index": 2.91}
{"variant": "LWVQGDIFRSKLKNQPSSEGSINK", "note": "[R15Q]", "protein stability index": 3.09}
{"variant": "LWVQGDIFRSKLKNDPSSEGSINK", "note": "[R15D]", "protein stability index": 2.61}
{"variant": "LWVQGDIFRSKLKNMPSSEGSINK", "note": "[R15M]", "protein stability index": 2.07}
{"variant": "LWVQGDIFRSKLKNKPSSEGSINK", "note": "[R15K]", "protein stability index": 3}
{"variant": "LWVQGDIFRSKLKNAPSSEGSINK", "note": "[R15A]", "protein stability index": 2.81}
{"variant": "LWVQGDIFRSKLKNHPSSEGSINK", "note": "[R15H]", "protein stability index": 2.62}
{"variant": "LWVQGDIFRSKLKNLPSSEGSINK", "note": "[R15L]", "protein stability index": 2.92}
{"variant": "LWVQGDIFRSKLKNFPSSEGSINK", "note": "[R15F]", "protein stability index": 2.39}
{"variant": "LWVQGDIFRSKLKNCPSSEGSINK", "note": "[R15C]", "protein stability index": 2.54}
{"variant": "LWVQGDIFRSKLKNPPSSEGSINK", "note": "[R15P]", "protein stability index": 2.81}
{"variant": "LWVQGDIFRSKLKNWPSSEGSINK", "note": "[R15W]", "protein stability index": 2.25}
{"variant": "LWVQGDIFRSKLKNTPSSEGSINK", "note": "[R15T]", "protein stability index": 3.26}
{"variant": "LWVQGDIFRSKLKNNPSSEGSINK", "note": "[R15N]", "protein stability index": 2.57}
{"variant": "LWVQGDIFRSKLKNSPSSEGSINK", "note": "[R15S]", "protein stability index": 2.66}
{"variant": "LWVQGDIFRSKLKNRPSSEGSRNK", "note": "[I22R]", "protein stability index": 3.2}
{"variant": "LWVQGDIFRSKLKNRPSSEGSSNK", "note": "[I22S]", "protein stability index": 3.88}
{"variant": "LWVQGDIFRSKLKNRPSSEGSANK", "note": "[I22A]", "protein stability index": 3.1}
{"variant": "LWVQGDIFRSKLKNRPSSEGSNNK", "note": "[I22N]", "protein stability index": 3.05}
{"variant": "LWVQGDIFRSKLKNRPSSEGSCNK", "note": "[I22C]", "protein stability index": 2.59}
{"variant": "LWVQGDIFRSKLKNRPSSEGSGNK", "note": "[I22G]", "protein stability index": 3.21}
{"variant": "LWVQGDIFRSKLKNRPSSEGSTNK", "note": "[I22T]", "protein stability index": 3.39}
{"variant": "LWVQGDIFRSKLKNRPSSEGSWNK", "note": "[I22W]", "protein stability index": 2.33}
{"variant": "LWVQGDIFRSKLKNRPSSEGSPNK", "note": "[I22P]", "protein stability index": 2.63}
{"variant": "LWVQGDIFRSKLKNRPSSEGSKNK", "note": "[I22K]", "protein stability index": 2.06}
{"variant": "LWVQGDIFRSKLKNRPSSEGSFNK", "note": "[I22F]", "protein stability index": 2.51}
{"variant": "LWVQGDIFRSKLKNRPSSEGSYNK", "note": "[I22Y]", "protein stability index": 2.85}
{"variant": "LWVQGDIFRSKLKNRPSSEGSQNK", "note": "[I22Q]", "protein stability index": 2.71}
{"variant": "LWVQGDIFRSKLKNRPSSEGSDNK", "note": "[I22D]", "protein stability index": 3.2}
{"variant": "LWVQGDIFRSKLKNRPSSEGSENK", "note": "[I22E]", "protein stability index": 2.97}
{"variant": "LWVQGDIFRSKLKNRPSSEGSLNK", "note": "[I22L]", "protein stability index": 2.79}
{"variant": "LWVQGDIFRSKLKNRPSSEGSMNK", "note": "[I22M]", "protein stability index": 3.02}
{"variant": "LWVQGDIFRSKLKNRPSSEGSVNK", "note": "[I22V]", "protein stability index": 2.81}
{"variant": "LWVQGDIFRSKLKNRPSSEGSHNK", "note": "[I22H]", "protein stability index": 3.32}
